B1: FUT8 (parent)
chain: YPSYKVREKIETVKYPTYPEAEK

Variants of: B1
Experiment: protein stability index of a GFP-peptide fusion (GPS, HEK-293T) (PSI 1-6); higher = more stable
Settings: c terminus: native
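Further: lentivirally expressed fusions sorted by FACS into six bins by GFP to DsRed ratio, PSI derived from sequencing read proportions per bin multiplied by bin number.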

| Variant | protein stability index |
| --- | --- |
| YPSYKVREKIETVKYPTYPEDEK [A21D] | 4.34 |
| YPSYKVREKIETVKYPTYPEPEK [A21P] | 4.04 |
| YPSYKVREKIETVKYPTYPEMEK [A21M] | 4.7 |
| YPSYKVREKIETVKYPTYPENEK [A21N] | 3.45 |
| YPSYKVREKIETVKYPTYPEAPK [E22P] | 4.46 |
| YPSYKVREKIETVKYPTYPEAWK [E22W] | 2.91 |
| YPSYKVREKIETVKYPTYPEASK [E22S] | 4.04 |
| YPSYKVREKIETVKYPTYPEARK [E22R] | 4.2 |
| YPSYKVREKIETVKYPTYPEAIK [E22I] | 2.17 |
| YPSYKVREKIETVKYPTYPEAVK [E22V] | 1.9 |
| YPSYKVREKIETVKYPTYPEAFK [E22F] | 4.11 |
| YPSYKVREKIETVKYPTYPEAKK [E22K] | 4.54 |
| YPSYKVREKIETVKYPTYPEANK [E22N] | 4.36 |
| YPSYKVREKIETVKYPTYPEAYK [E22Y] | 2.93 |
| YPSYKVREKIETVKYPTYPEATK [E22T] | 3.32 |
| YPSYKVREKIETVKYPTYPEAHK [E22H] | 4.28 |
| YPSYKVREKIETVKYPTYPEACK [E22C] | 1.66 |
| YPSYKVREKIETVKYPTYPEAQK [E22Q] | 4.44 |
| YPSYKVREKIETVKYPTYPEALK [E22L] | 1.97 |
| YPSYKVREKIETVKYPTYPEAAK [E22A] | 3.28 |
| YPSYKVREKIETVKYPTYPEADK [E22D] | 4.31 |
| YPSYKVREKIETVKYPTYPEAMK [E22M] | 3.45 |
| YPSYKVREKIETVKYPTYPSAEK [E20S] | 3.56 |
| YPSYKVREKIETVKYPTYPIAEK [E20I] | 2.88 |

| Variant | protein stability index |
| --- | --- |
| YPSYKVREKIETVKYPTYPLAEK [E20L] | 3.5 |
| YPSYKVREKIETVKYPTYPCAEK [E20C] | 3.33 |
| YPSYKVREKIETVKYPTYPYAEK [E20Y] | 3.52 |
| YPSYKVREKIETVKYPTYPNAEK [E20N] | 4.41 |
| YPSYKVREKIETVKYPTYPKAEK [E20K] | 4.69 |
| YPSYKVREKIETVKYPTYPMAEK [E20M] | 3.55 |
| YPSYKVREKIETVKYPTYPGAEK [E20G] | 4.26 |
| YPSYKVREKIETVKYPTYPTAEK [E20T] | 3.87 |
| YPSYKVREKIETVKYPTYPDAEK [E20D] | 4.62 |
| YPSYKVREKIETVKYPTYPAAEK [E20A] | 3.93 |
| YPSYKVREKIETVKYPTYPFAEK [E20F] | 3.39 |
| YPSYKVREKIETVKYPTYPQAEK [E20Q] | 3.61 |
| YPSYKVREKIETVKYPTYPHAEK [E20H] | 3.97 |
| YPSYKVREKIETVKYPTYPRAEK [E20R] | 3.63 |
| YPSYKVREKIETVKYPTYPWAEK [E20W] | 2.9 |
| YPSYKVREKIETVKYPTYPVAEK [E20V] | 3.48 |
| YPSYKVREKIETVKYPTYPEAEP [K23P] | 3.88 |
| YPSYKVREKIETVKYPTYPEAEA [K23A] | 2.92 |
| YPSYKVREKIETVKYPTYPEAEY [K23Y] | 2.9 |
| YPSYKVREKIETVKYPTYPEAED [K23D] | 4.61 |
| YPSYKVREKIETVKYPTYPEAEC [K23C] | 3.19 |
| YPSYKVREKIETVKYPTYPEAEG [K23G] | 3.96 |
| YPSYKVREKIETVKYPTYPEAEI [K23I] | 4.41 |
| YPSYKVREKIETVKYPTYPEAEV [K23V] | 3.4 |

| Variant | protein stability index |
| --- | --- |
| YPSYKVREKIETVKYPTYPEAEL [K23L] | 3 |
| YPSYKVREKIETVKYPTYPEAEW [K23W] | 2.53 |
| YPSYKVREKIETVKYPTYPEAEQ [K23Q] | 4.04 |
| YPSYKVREKIETVKYPTYPEAEE [K23E] | 1.93 |
| YPSYKVREKIETVKYPTYPEAES [K23S] | 3.46 |
| YPSYKVREKIETVKYPTYPEAER [K23R] | 1.82 |
| YPSYKVREKIETVKYPTYPEAEN [K23N] | 3.95 |
| YPSYKVREKIETVKYPTYPEAEF [K23F] | 3.68 |
| YPSYKVREKIETVKYPTYPEAEM [K23M] | 2.94 |
| YPSYKVREKIETVKYPTYPEAET [K23T] | 3.36 |
| YPSYKVREKIETVKYPTYPEAEH [K23H] | 4.15 |
| YPSYKVREKIETVKYPTFPEAEK [Y18F] | 3.89 |
| YPSYKVREKIETVKYPTVPEAEK [Y18V] | 4.24 |
| YPSYKVREKIETVKYPTCPEAEK [Y18C] | 4.98 |
| YPSYKVREKIETVKYPTSPEAEK [Y18S] | 4.68 |
| YPSYKVREKIETVKYPTMPEAEK [Y18M] | 4.15 |
| YPSYKVREKIETVKYPTGPEAEK [Y18G] | 3.52 |
| YPSYKVREKIETVKYPTNPEAEK [Y18N] | 4.63 |
| YPSYKVREKIETVKYPTDPEAEK [Y18D] | 4.47 |
| YPSYKVREKIETVKYPTIPEAEK [Y18I] | 3.96 |
| YPSYKVREKIETVKYPTQPEAEK [Y18Q] | 4.54 |
| YPSYKVREKIETVKYPTHPEAEK [Y18H] | 4.31 |
| YPSYKVREKIETVKYPTWPEAEK [Y18W] | 3.63 |
| YPSYKVREKIETVKYPTEPEAEK [Y18E] | 4.65 |

| Variant | protein stability index |
| --- | --- |
| YPSYKVREKIETVKYPTTPEAEK [Y18T] | 4.7 |
| YPSYKVREKIETVKYPTPPEAEK [Y18P] | 5.06 |
| YPSYKVREKIETVKYPTRPEAEK [Y18R] | 5.1 |
| YPSYKVREKIETVKYPTKPEAEK [Y18K] | 2.85 |
| YPSYKVREKIETVKYPTLPEAEK [Y18L] | 3.87 |
| YPSYKVREKIETVKYPTAPEAEK [Y18A] | 4.08 |
| YPSYKVREKIETVKYPTYCEAEK [P19C] | 3 |
| YPSYKVREKIETVKYPTYDEAEK [P19D] | 3.66 |
| YPSYKVREKIETVKYPTYNEAEK [P19N] | 4.11 |
| YPSYKVREKIETVKYPTYSEAEK [P19S] | 3.94 |
| YPSYKVREKIETVKYPTYHEAEK [P19H] | 3.18 |
| YPSYKVREKIETVKYPTYWEAEK [P19W] | 2.37 |
| YPSYKVREKIETVKYPTYFEAEK [P19F] | 2.01 |
| YPSYKVREKIETVKYPTYIEAEK [P19I] | 3.59 |
| YPSYKVREKIETVKYPTYGEAEK [P19G] | 3.94 |
| YPSYKVREKIETVKYPTYMEAEK [P19M] | 3.04 |
| YPSYKVREKIETVKYPTYTEAEK [P19T] | 3.45 |
| YPSYKVREKIETVKYPTYAEAEK [P19A] | 3.79 |
| YPSYKVREKIETVKYPTYREAEK [P19R] | 3.71 |
| YPSYKVREKIETVKYPTYVEAEK [P19V] | 2.98 |
| YPSYKVREKIETVKYPTYQEAEK [P19Q] | 3.85 |
| YPSYKVREKIETVKYPTYKEAEK [P19K] | 4.19 |
| YPSYKVREKIETVKYPTYYEAEK [P19Y] | 1.25 |
| YPSYKVREKIETVKYPTYEEAEK [P19E] | 4.67 |

Reference: the supplement of paper PMC10567573
